This passage reports stoichiometry N results from PMC2935145.

The assay deals with Hr domain from the Acidothermus cellulolyticus P_(1B-5)-ATPase (P_(1B-5)-Hr) (Acidothermus cellulolyticus 11B). Kind of assay: SEC. Background: In gel filtration, larger molecules generally elute earlier.

Broadly, the stoichiometry N is the number of molecules, sites or subunits per partner or assembly. “Hr domain from the Acidothermus cellulolyticus P_(1B-5)-ATPase (P_(1B-5)-Hr) (domain or fragment)”: the stoichiometry N came out at 2.
